Reference: patent US20240254227A1 (Alector, published 2024)

T1: human CD300LB on primary human monocytes (human, UniProt A8K4G0 18-201)
T1 construct: Endogenous protein on primary cells; that the target is CD300LB is inferred from the antibodies being anti-CD300LB antibodies; also called Monocyte donor 1281; Monocyte donor 1282
T1 sequence: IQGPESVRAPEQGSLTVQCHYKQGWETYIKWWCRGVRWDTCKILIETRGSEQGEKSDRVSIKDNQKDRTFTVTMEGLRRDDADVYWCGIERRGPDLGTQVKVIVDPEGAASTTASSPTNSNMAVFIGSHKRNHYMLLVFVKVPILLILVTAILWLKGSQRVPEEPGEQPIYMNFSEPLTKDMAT

T2: human CD300LB on primary human macrophages (human, UniProt A8K4G0 18-201)
T2 sequence: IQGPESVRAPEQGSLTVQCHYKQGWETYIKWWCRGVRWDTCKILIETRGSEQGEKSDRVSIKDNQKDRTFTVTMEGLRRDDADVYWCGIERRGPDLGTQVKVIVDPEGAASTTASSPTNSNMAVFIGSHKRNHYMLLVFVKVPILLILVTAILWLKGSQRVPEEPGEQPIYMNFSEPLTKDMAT

T3: murine CD300D-Fc (mouse)
T3 construct: mouse IgG2a-Fc fusion (R&D Systems); the entry is the whole fusion chain; also called mCD300D; Mouse CD300D-Fc
T3 chain: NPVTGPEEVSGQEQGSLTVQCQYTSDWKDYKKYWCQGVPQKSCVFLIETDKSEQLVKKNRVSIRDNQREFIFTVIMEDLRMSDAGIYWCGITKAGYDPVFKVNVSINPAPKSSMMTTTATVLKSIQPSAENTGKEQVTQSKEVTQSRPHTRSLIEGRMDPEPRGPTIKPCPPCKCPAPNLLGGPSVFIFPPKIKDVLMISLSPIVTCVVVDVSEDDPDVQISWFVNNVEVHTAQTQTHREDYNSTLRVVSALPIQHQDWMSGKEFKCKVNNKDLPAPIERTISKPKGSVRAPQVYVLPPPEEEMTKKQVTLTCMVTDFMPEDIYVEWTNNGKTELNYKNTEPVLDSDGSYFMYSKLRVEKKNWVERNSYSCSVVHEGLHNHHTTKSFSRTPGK


Key:
[1] = molecular target: T1, human CD300LB on primary human monocytes; assay: flow cytometry, primary human monocytes donor 1281, 10 ug/mL antibody, isotype control subtracted
Protocol: (§1) Human monocytes from various donors were isolated from whole blood using RosetteSep Human Monocyte Enrichment Cocktail (Stemcell technologies) and Ficoll centrifugation per manufacturer protocols. After lysing red blood cells with ACK lysing buffer, monocytes were resuspended in complete media (RPMI, 10% FBS, Pen/Strep, L-glutamine, HEPES, non-essential amino acid, Sodium pyruvate). To obtain macrophages from these isolated monocytes, 100 ng/ml human M-CSF and 8% v/v human serum were added to the cells for 5-7 days. Cells were counted on the day of the experiment and plated at 100,000 cells per well in a round-bottom 96 well plate. Cells were incubated with TruStain Fc block and 10 μg/mL antibody for 1 hour on ice before washing with 250 μL ice cold PBS twice. Cells were then incubated with the appropriate APC-conjugated secondary antibodies for 20 minutes in the dark on ice. Finally, cells were washed twice with ice cold FACS buffer and then resuspended in 100 μL FACS buffer containing 1% propidium iodide. Samples were immediately analyzed using a BD FACSCanto flow cytometer. The gMFI was calculated using FlowJo software minus the gMFI of the appropriate isotype control.

[2] = molecular target: T4, huCD300LB-DAP12 fusion constitutively expressed on 293 Freestyle (Freestyle HEK) cells (human); assay: flow cytometry, geometric mean (APC-A), FreeStyle HEK cells expressing huCD300LB
T4 construct: also called Human CD300LB-DAP12 chimera
Protocol: Other members of the human CD300 family share sequence homology with human CD300LB. Thus, counter screens against binding of the anti-CD300LB antibodies to huCD300A, huCD300C, huCD300LD, huCD300E, huCD300LF, and huCD300G by stable overexpression in Freestyle HEK cells (generation of which is described above) were performed as follows. Cells were counted and labeled with 200 nM CFSE, 500 nM VioBlue, or a combination of the two to discriminate between CD300LB, Parental cells, and the other CD300 family members. Cells were washed thoroughly with PBS containing 2% fetal bovine serum then resuspended at a total of 240,000 cells per well. Hybridoma supernatants (100 L) or purified antibodies at various concentrations were added and incubated for one hour before the cells were washed twice again and stained with an APC-labeled anti-human or anti-mouse secondary antibody. Cells were then analyzed using a BD FACSCanto II. Anti-CD300LB antibodies were analyzed for specific binding to human CD300LB by FlowJo software by gating on live cells, then the APC geometric mean fluorescence intensity (gMFI) calculated for each labeled population. The results are shown in […]

[3] = molecular target: T2, human CD300LB on primary human …; assay: flow cytometry, primary human macrophages donor 1278, 10 ug/mL antibody, isotype control subtracted
Protocol: as §1

murine CD300D-Fc = molecular target: T3, murine CD300D-Fc; assay: SPR (Carterra LSA), antibody immobilised, Fc fusion at 300 or 600 nM

Binder | gMFI [1] [gMFI] | gMFI [3] [gMFI] | SPR binding (control subtracted) (murine CD300D-Fc) | further results
anti-CD300LB antibody CD-07 (antibody, V domains shown) VH: QVQLVQSGAEVKKPGASVKVSCKASGYTFTNYRMHWVRQAPGQGLEWMGWINPNSGGTIYAQKFQGRVTMTRDTSTSTVYMELSSLRSEDTAVYYCARDLDYWGQGTLVTVSS VL: DIQMTQSPSSLSASVGDRVTITCQASQDISNYLNWYQQKPGKAPKLLIYGASSLQSGVPSRFSGSGSGTDFTLTISSLQPEDFATYYCQQSYSTPWTFGPGTKVEIK | 43 | 211000 | – | EC50 (read off the curve) [2]: ~20 nM
anti-CD300LB antibody CD-05 (antibody, V domains shown) VH: QVQLVQSGAEVKKPGASVKVSCKASGYTFSRYYINWVRQAPGQGLEWMGWINPNSGGTNYAQKFQGRVTMTRDTSTSTVYMELSSLRSEDTAVYYCTTDQLRFGKTGPYYGMDVWGQGTTVTVSS VL: DIQMTQSPSSLSASVGDRVTITCRASQNIGTYLNWYQQKPGKAPKLLIYAASSLQSGVPSRFSGSGSGTDFTLTISSLQPEDFATYYCQQSYSDTLTFGGGTKVEIK | 736 | 175000 | – | –
anti-CD300LB antibody CD-06 (antibody, V domains shown) VH: QVQLVQSGAEVKKPGASVKVSCKASGYTFTTYAVHWVRQAPGQGLEWMGIVNPNSGGTNYAQKFQGRVTMTRDTSTSTVYMELSSLRSEDTAVYYCARDIVPMNNFYNYYYGMDVWGQGTTVTVSS VL: DIQMTQSPSSLSASVGDRVTITCRASQSISSYLNWYQQKPGKAPKLLIYATSTLQSGVPSRFSGSGSGTDFTLTISSLQPEDFATYYCQQSYRIPYTFGQGTKVEIK | 1650 | 169000 | – | –
anti-CD300LB antibody CD-01 (antibody, V domains shown) VH: RVQLQQSGAELVRPGASVTLSCKASGFTFTDFEMHWVKKTPVHGLEWIGAIDPESGNTAYNQKFRGKATLTADKSSSTAYMELRYLTSEDSAVYYCTPLISGADYWGQGTTLTVSS VL: DVVMTQSPLSLPVSLGDQASISCRSSQSLVHSDGNTYLYWYLQKPGQSPKLLIYKVSNRFSGVPDRFSGSGSGTDFTFKISRVGAEDLGVYFCSQSTHVPWTFGGGTKLEII | – | – | – | binding result [2]: no binding
anti-CD300LB antibody CD-12 (antibody, V domains shown) VH: QIQLVQSGPELKKPGETVKISCKASGYTFTDYSMHWVRQAPGKGLKWMAWINTETGEATHADDFKGRFDFSLDTSASTAYLQIKNLKNEDTGIYFCVCYGSSYGMDYWGQGTSVTVSS VL: DIVLTQSPASLPVSLGQRATISCRASKSVRTSGASYMHWYQQKPGQPPKLLIYLASNLKSGVPTRFSGSGSGTDFTLNIHPVEEEDAATYYCQHNREVPPTFGGGTKLEIK | – | – | 0.6 | –
anti-CD300LB antibody CD-17 (antibody, V domains shown) VH: QIQLVQSGPELKKPGETVKISCKASGYTLTDYSMHWVKQAPGKGLKWMGWINTETGEPRYGDDFKGRFAFSLETSASSAYLQINNLKNDDTATYFCATYGRSYGMDFWGQGTSVTVSS VL: DIVLTQSPASLAVSLGQRATISCRASKSVSPSGHSYMHWYQQKPGQPPKLLIYLASNLKSGVPARFSGSGSGTDFTLNIHPVEEGDAATYYCQHNRELPPTFGGGSKLEIK | – | – | 0.8 | –
anti-CD300LB antibody CD-15 (antibody, V domains shown) VH: QIQLVQSGPELKKPGETVKISCQVSGYTFTDYSMHWLKQAPGKGLKWMAWINTETGESTYTDEFKGRFVFSLETSVRTAYLKINNLKNEDTATYFCGTYGSSYGMAYWGQGTSVTVSS VL: DIVLTQSPASLPVSLGQRATISCRASKSVSTSGSSYLHWYQQKPGQPPKLLIYLASKLESGVPARFRGSGSGTDFTLNIHPVEEEDAATYYCQHNREVPPTFGGGTKLEIK | – | – | 1.7 | –
anti-CD300LB antibody CD-02 (antibody, V domains shown) VH: QVQLQQPGAELVRPGSSVKLSCQASGYTFTNYWMHWVRQRPIQGLEWIGNIDPSDSETHYNQKFKDRATLTVDKSSSTAYMQLSSLTSEDSAVYYCARSGVYDDEGGDYWGQGTTLTVSS VL: ENVLTQSPAIMSASPGEKVTMTCSASSSVSYIHWYQQKSSTSPKLWIYDTSKLASGVPGRFSGSGSGNSYSLTISSMETEDVATYYCFQGSGYPLTFGAGTKLELK | – | – | – | binding result [2]: no binding
anti-CD300LB antibody CD-18 (antibody, V domains shown) VH: DVQLQESGPDLVKPSQSLSLTCTVTGYSITSGYSWHWIRQFPDNKLEWMGYILSRGDTNFNPSLKSRISITRSTSNNQFFLHFNSVTTEDTATYYCARDFFDYWGQGTTLTVSS VL: DVLMTQTPLSLPVSLGDQASISCRSSQSIVHSNGNTYLEWYLQKPGQSPKLLIYKVSDRFSGVPDRFSGSGSGTDFTLKISRVEAEDLGVYFCFQGSHVPYTFGGGTKLEIK | – | – | 0.6 | –
anti-CD300LB antibody CD-11 (antibody, V domains shown) VH: QIQLVQSGPEVKKPGETVKISCKASGYTLTDYSMHWVMQTPGTGLKWMAWMNTETGEPTYADDFKGRFAFSLETSAGTAYLQIDNLKNEDTATYFCATYGKSYGMKYWGQGTSVTVSS VL: DIVLTQSPPSLAVSLGQRATISCRATKSVSPYLHWYQQTPGQPPKLLIYLASNLDSGVPARFSGSGSGTDFTLNIHPVEEEDAATYYCQHNKELPPTFGGGTRLEIK | – | – | -0.1 | –
